Data: patent publication US20130072665A1 (Amgen, published 2013)
Positions count from the first letter of the chain named. Where two headings read alike, the source gives them in different places. One block for each binder: values may come before it.

Tests used:
Assay in all cases: domain binding ELISA (coated antibody captures the PCSK9 form; OD650)
[1] = target: T1, PCSK9 V domain (450-692 of SEQ ID NO: 3) (human, UniProt Q8NBP7 450-692)
T1 construct: also called v-domain PCSK9
T1 chain: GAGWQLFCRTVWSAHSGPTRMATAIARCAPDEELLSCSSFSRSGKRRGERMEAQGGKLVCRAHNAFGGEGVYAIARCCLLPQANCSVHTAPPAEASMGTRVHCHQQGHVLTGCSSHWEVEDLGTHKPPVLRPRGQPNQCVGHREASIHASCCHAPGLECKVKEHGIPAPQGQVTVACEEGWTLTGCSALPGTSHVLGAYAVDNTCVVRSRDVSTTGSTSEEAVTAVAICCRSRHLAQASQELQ
Method: (§1) Clear, 96 well maxisorp plates (Nunc) were coated overnight with 2 ug/ml of various anti-PCSK9 antibodies diluted in PBS. Plates were washed thoroughly with PBS/0.05% Tween-20 and then blocked for two hours with 3% BSA/PBS.

[2] = target: T2, PCSK9 ProCat (31-449 of SEQ ID NO: 3) (human, UniProt Q8NBP7 27-449)
T2 construct: From PCSK9 449TEV after rTEV cleavage: GAMG-PCSK9 (31-449)-ENLYFQ; Written as one chain; autocatalysis between 152 and 153 splits pro-domain and catalytic domain; also called procat PCSK9; PCSK9 31-449
Method: as §1

[3] = target: T1, PCSK9 V domain (450-692 of SEQ ID NO: 3)
Method: as §1

[4] = target: T2, PCSK9 ProCat (31-449 of SEQ ID NO: 3); remark: listed apart in the source
Method: as §1

binding result [1]: no binding
binding result [2]: binds
B1: 25G4 (antibody, V domains shown)
VH: EVQLLESGGGLVQPGGSLRLSCAASGFTFSSYAMNWVRQAPGKGLEWVSTISGSGGNTYYADSVKGRFTISRDNSKNTLYLQMNSLRAEDTAVYYCAKKFVLMVYAMLDYWGQGTLVTVSS
VL: DIQMTQSPSSLSASVGDRVTITCRASQSISIYLNWYQQKPGKAPYLLIYAAASLQSGVPSRFSGSGSGTDFTLTISSLQPEDFATYYCQQSYSAPITFGQGTRLEIK

binding result [3]: no binding
binding result [4]: binds
B2: 22E2 (antibody, V domains shown)
VH: QVQLVESGGGVVQPGRSLRLSCAASGFTFSSFGMHWVRQAPGKGLEWVALIWNDGSNKYYADSVKGRFTISRDNSKNTLYLQMNSLRAEDTAVYYCARAIAALYYYYGMDVWGQGTTVTVSS
VL: QSVLTQPPSVSAAPGQKVTISCSGSSSNIGNNFVSWYQQLPGTAPKLLIYDYNKRPSGIPDRFSGSKSGTSATLGITGLQTGDEADYYCGTWDSSLSGYVFGTGTRVTVL

binding result [2]: no binding
B3: 13B5 (antibody, V domains shown)
VH: EVQLLESGGGLVQPGGSLRLSCAASGFTFSSYAMSWVRQAPGKGLEWVSTISGSGGRTYYADSVKGRFTISRDNSKNTLYLQMNSLRAEDTAVYYCAKEVGSPFDYWGQGTLVTVSS
VL: B2 VL with S26N, F33Y, Y52N, K67N, G98A, Y99V, T103G, R106K, V107L

binding result [3]: no binding
binding result [4]: binds
B4: 27A6 (antibody, V domains shown)
VH: B2 VH with Q3H, S30N, N53S, N57D
VL: B2 VL with L40F, G98S

binding result [3]: no binding
binding result [4]: binds
B5: 28B12 (antibody, V domains shown)
VH: B2 VH with Q114H
VL: B2 VL

binding result [3]: no binding
B6: 31G11 (antibody, V domains shown)
VH: B2 VH with S30R, F32Y, N53H, K58T, A61V, A99G, A102V, L103A
VL: B2 VL with Y52S, G75D, G98A, R106K

binding result [3]: no binding
B7: 16F12 (antibody, V domains shown)
VH: B2 VH with Q3H, S30N, N53S, N57D, K58E
VL: B2 VL with G98A
notes: lambda light chain

binding result [3]: no binding
binding result [4]: binds
B8: 28D6 (antibody, V domains shown)
VH: B2 VH
VL: B2 VL with S9T

binding result [1]: no binding
binding result [2]: binds
B9: 30B9 (antibody, V domains shown)
VH: QVQLVQSGAEVKKPGASVKVSCKASGYPLTSYGISWVRQAPGQGLEWMGWISAYNGNTNYAQKVQGRVTMTTDTSTSTVYMELRSLRSDDTAVYYCARGYGMDVWGQGTTVTVSS
VL: QSALTQPASVSGSPGQSITISCTGTSSDVGGYNSVSWYQQHPGKPPKLMIYEVSNRPSGVSNRFSGSKSGNTASLTISGLQAEDEADYFCSSYTSTSMVFGGGTKLTVL

binding result [1]: no binding
B10: 17C2.1 (antibody, V domains shown)
VH: B9 VH with P28S, L29F, I51V, V64F, V79A, G101V
VL: B9 VL with S11F, G31A, P45A, L48R, F89Y, S97N
notes: subclone

binding result [1]: no binding
B11: 26E10.1 (antibody, V domains shown)
VH: B9 VH with P28T, I51V, A53F, V64L, V68G, T74P, V79A
VL: B9 VL with P45A, S61F, F89Y, S91N
notes: subclone

binding result [3]: no binding
binding result [4]: binds
B12: 3B6 (antibody, V domains shown)
VH: B9 VH with P28T, L29F, A53T, V79A, G101T, M102R, V104Y, T110L
VL: QPVLTQPLFASASLGASVTLTCTLSSGYSSYEVDWYQQRPGKGPRFVMRVDTGGIVGSKGEGIPDRFSVLGSGLNRYLTIKNIQEEDESDYHCGADHGSGTNFVVVFGGGTKLTVL

binding result [3]: no binding
binding result [4]: binds
B13: 23G1 (antibody, V domains shown)
VH: B9 VH with P28T, I51V, A53F, V64L, V68G, T74P, V79A
VL: B9 VL with P45A, S54T, F89Y, S91N

binding result [1]: no binding
binding result [2]: binds
B14: 27H5 (antibody, V domains shown)
VH: B9 VH with K13R, P28T, A53V, R87S
VL: B9 VL with N62I

binding result [3]: no binding
binding result [4]: binds
B15: 31D1 (antibody, V domains shown)
VH: B9 VH with V2I, P28T, A53F, Y95F
VL: B9 VL with T107A

binding result [3]: no binding
binding result [4]: binds
B16: 20D10 (antibody, V domains shown)
VH: B9 VH with V2I, R67S
VL: B9 VL with H41Y, M49K

binding result [1]: no binding
binding result [2]: binds
B17: 27E7 (antibody, V domains shown)
VH: B9 VH with V18L, P28S, L83V
VL: B9 VL

binding result [1]: no binding
binding result [2]: binds
B18: 19H9 (antibody, V domains shown)
VH: B9 VH with P28A
VL: B9 VL with S26N, V60I
notes: also called 19H9.2

binding result [1]: no binding
B19: 31B12 (antibody, V domains shown)
VH: QVQLVESGGGVVQPGRSLRLSCAASGFTFSSYGMHWVRQAPGKGLEWVAIIWYDGSNKYYADSVKGRFTISRDNSKNTLYLQMNSLRAEDTAVYYCARRGGLAARPGGMDVWGQGTTVTVSS
VL: SYELTQPPSVSVSPGQTARITCSGDKLGDKYACWYQQKPGQSPVLVIYQNTKWPLGIPERFSGSKSGNTVTLTISGTQAMDEADYYCQAWDSSTVVFGGGTKLTVL

binding result [1]: no binding
binding result [2]: binds
B20: 13H1 (antibody, V domains shown)
VH: QVQLQQSGPGLVKPSQTLSLTCAISGDSVSSNSAAWNWIRQSPSRGLEWLGRTYYRSKWYKNYSVSVKSRITINPDTSKNQFSLQLNSVTPGDTAVYYCARGGPTAAFDYWGQGTLVTVSS
VL: LSALTQPASVSGSPGQSITISCTGTSSDVGNYNLVSWYQQYSGKAPKLMIYEVSKRPSGVSNRFSGSKSGNTASLTISGLQAEDEADYYCCSYAGSSTLVFGGGTKLTVL
